T1: IL-22 (Homo sapiens, UniProt Q9GZX6)
T1 construct: made in house; host or cells: genetically modified ARPE-19 cells; filter-sterilized culture supernatant, not purified
T1 sequence (Q9GZX6 34-179): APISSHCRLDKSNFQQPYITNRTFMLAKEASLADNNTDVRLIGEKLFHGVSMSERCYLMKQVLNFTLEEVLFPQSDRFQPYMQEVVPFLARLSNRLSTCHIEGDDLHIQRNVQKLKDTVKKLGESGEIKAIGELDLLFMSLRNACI


Key:
[1] = in vivo; cited from earlier work
Colo205 cells = assay: Induction of IL-10 production by Colo205 cells (ELISA); assay type: cell-based, human; conditions: ~18 h incubation
Protocol: Balb-3T3 cells and ARPE-19 cells were genetically modified to express and secrete murine IL-22 and human IL-22, respectively. The ability of the genetically modified ARPE-19 cells to produce active hIL-22 in vitro was assessed by the induction of IL-10 production by Colo205 cells, which are derived from human colonic epithelium.
Generation of IL-22 response curve. Col205 cells were seeded at a density of 2×10^5 cells/well in a 96 well plate and starved in serum free media overnight. The serum free media was removed from the wells and the cells were treated with rhIL-22 (peprotech Cat #200-22) diluted in RPMI/10% FBS at half log dilutions to generate final concentrations of 1000, 316.46, 100.14, 31.69, 10.02, 3.17, 1 and 0.32 pg/ml. The plate was incubated overnight at 37 C, 5% CO2 for ˜18 h. The supernatant was transferred to a new 96 well plate and centrifuged.
Biological activity of hIL-22 produced by genetically modified ARPE-19 cells. Col205 cells were seeded at a density of 2×10^5 cells/well in a 96 well plate and starved in serum free media overnight. The serum free media was removed and the cells were treated with filter sterilized supernatant from hIL22 producing ARPE-19 cells (ARPE-19 IL-22) or unmodified ARPE-19 cells (ARPE-19 WT) diluted in RPMI/10% FBS at final concentrations of 1%, 0.5%, 0.25% and 0.125%. The plate was incubated overnight at 37 C, 5% CO2 for ˜18 h. […]

IL-22 = biological target: T1, IL-22; assay: Inhibition of IL22 activity in Col205 cells; assay type: cell-based; conditions: ARPE IL-22 supernatant 1%; rhIL22BP 100, 50, 25 and 1 ng/ml
Protocol: Inhibition of IL22 activity in Col205 cells. Col205 cells were seeded at a density of 2×10^5 cells/well in a 96 well plate and starved in serum free media overnight. The serum free media was removed and the cells were treated with 190 ul of recombinant human IL-22 binding protein (rhIL22BP) diluted in RPMI/10% FBS at concentrations of 100, 50, 25 and 1 ng/ml. Filter sterilized supernatant from hIL22-producing ARPE-19 cells (ARPE IL-22) or unmodified ARPE-19 cells (ARPE WT) was diluted 1:5 in RPMI/10% FBS and 10 ul was added to the wells for a final concentration of 1%. The plate was incubated overnight at 37 C, 5% CO2 for ˜18 h. The supernatant was transferred to a new 96 well plate and centrifuged.

Molecule | IL-10 production by Colo205 cells (Colo205 cells) | also measured
human IL-10: human IL-10 protein in plasma |  | half-life of human IL-10 in plasma [1]: about 2 hours
rhIL-22: rhIL-22 (peprotech Cat #200-22) (protein, UniProt Q9GZX6 34-179, looked up) Interleukin-22: APISSHCRLDKSNFQQPYITNRTFMLAKEASLADNNTDVRLIGEKLFHGVSMSERCYLMKQVLNFTLEEVLFPQSDRFQPYMQEVVPFLARLSNRLSTCHIEGDDLHIQRNVQKLKDTVKKLGESGEIKAIGELDLLFMSLRNACI | induced IL-10 production | 
hIL-22: human IL-22 in filter sterilized supernatant from hIL22 producing genetically modified ARPE-19 cells (protein, UniProt Q9GZX6 34-179, looked up) Interleukin-22: APISSHCRLDKSNFQQPYITNRTFMLAKEASLADNNTDVRLIGEKLFHGVSMSERCYLMKQVLNFTLEEVLFPQSDRFQPYMQEVVPFLARLSNRLSTCHIEGDDLHIQRNVQKLKDTVKKLGESGEIKAIGELDLLFMSLRNACI | functionally active | 
rhIL22BP: recombinant human IL-22 binding protein, an endogenous and specific IL-22 inhibitor (protein, UniProt Q969J5 22-263, looked up) Interleukin-22 receptor …: TQSTHESLKPQRVQFQSRNFHNILQWQPGRALTGNSSVYFVQYKIMFSCSMKSSHQKPSGCWQHISCNFPGCRTLAKYGQRQWKNKEDCWGTQELSCDLTSETSDIQEPYYGRVRAASAGSYSEWSMTPRFTPWWETKIDPPVMNITQVNGSLLVILHAPNLPYRYQKEKNVSIEDYYELLYRVFIINNSLEKEQKVYEGAHRAVEIEALTPHSSYCVVAEIYQPMLDRRSQRSEERCVEIP |  | IL-10 production induced by hIL-22 in the presence of rhIL22BP (IL-22): blocked

Reference: patent US20240307455A1, “COMPOSITIONS, DEVICES AND METHODS FOR TREATING IMMUNE-MEDIATED INFLAMMATORY DISEASES” (SIGILON THERAPEUTICS, INC., priority 2021, published 2024)
